Measured values published in PMC2169363.

Key:
[1] = target: unphosphorylated smooth muscle myosin (chicken gizzard) (chicken) (UniProt P10587); experiment: co-sedimentation
[2] = target: phosphorylated smooth muscle myosin (chicken gizzard) (chicken) (UniProt P10587); experiment: co-sedimentation

EC50 [1] [nM]	EC50 [2] [nM]	amount recovered in the precipitate with 1.1 μM myosin (4.0 μM added) [1] [µM]	Substance
1700	1400		38k protein (native, purified from chicken gizzard smooth muscle) (natural protein)
1800			human p32 (recombinant) (from UniProt Q07021 74-282) (natural protein)
		1	recombinant 38k protein, full-length (1-207) (natural protein)
